Here are results for two molecules from publication doi:10.1101/2020.05.29.123786.

In general, stoichiometry N refers to the number of molecules, sites or subunits per partner or assembly.

Where “and” joins values, the source holds several entries; their conditions need not be identical. Equal entries are not always repeated.

Assay in all cases: cryo-EM structure
Assay [1] deals with PilQ from Pseudomonas aeruginosa (type IVa pilus secretin) (Pseudomonas aeruginosa) (UniProt P34750).
For assay [2], the target named is TsaP from Pseudomonas aeruginosa (Pseudomonas aeruginosa).
In assay [3] the target is T1, PilQ from Pseudomonas aeruginosa (type IVa pilus secretin) (Pseudomonas aeruginosa), P34750.
T1 chain: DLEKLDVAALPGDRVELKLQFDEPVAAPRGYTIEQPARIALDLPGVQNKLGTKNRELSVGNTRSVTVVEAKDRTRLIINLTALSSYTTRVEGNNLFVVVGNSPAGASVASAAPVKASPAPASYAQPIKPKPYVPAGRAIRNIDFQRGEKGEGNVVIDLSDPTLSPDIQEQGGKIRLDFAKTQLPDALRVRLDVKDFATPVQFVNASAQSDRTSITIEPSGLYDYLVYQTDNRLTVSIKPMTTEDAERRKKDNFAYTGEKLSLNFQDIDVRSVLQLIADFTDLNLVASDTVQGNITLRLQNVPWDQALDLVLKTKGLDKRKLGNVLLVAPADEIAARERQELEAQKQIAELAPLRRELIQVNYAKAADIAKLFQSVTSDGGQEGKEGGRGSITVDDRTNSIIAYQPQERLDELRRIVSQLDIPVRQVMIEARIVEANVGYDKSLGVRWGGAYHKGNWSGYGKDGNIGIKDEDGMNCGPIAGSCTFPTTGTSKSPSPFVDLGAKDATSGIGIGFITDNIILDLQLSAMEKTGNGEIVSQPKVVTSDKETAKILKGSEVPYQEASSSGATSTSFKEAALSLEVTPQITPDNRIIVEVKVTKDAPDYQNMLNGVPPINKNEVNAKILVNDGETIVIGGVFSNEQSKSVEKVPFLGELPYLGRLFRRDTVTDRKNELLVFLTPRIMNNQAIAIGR
Particulars: remark: other sources report otherwise.

In turn, “TsaP from Pseudomonas aeruginosa (natural protein)” gave a stoichiometry N (TsaP per PilQ) in assay [1] of 0.5. Moreover, the stoichiometry N in assay [2] is 7.

B1: PilQ from Pseudomonas aeruginosa (type IVa pilus secretin), P34750 25-714 (natural protein)
chain: DLEKLDVAALPGDRVELKLQFDEPVAAPRGYTIEQPARIALDLPGVQNKLGTKNRELSVGNTRSVTVVEAKDRTRLIINLTALSSYTTRVEGNNLFVVVGNSPAGASVASAAPVKASPAPASYAQPIKPKPYVPAGRAIRNIDFQRGEKGEGNVVIDLSDPTLSPDIQEQGGKIRLDFAKTQLPDALRVRLDVKDFATPVQFVNASAQSDRTSITIEPSGLYDYLVYQTDNRLTVSIKPMTTEDAERRKKDNFAYTGEKLSLNFQDIDVRSVLQLIADFTDLNLVASDTVQGNITLRLQNVPWDQALDLVLKTKGLDKRKLGNVLLVAPADEIAARERQELEAQKQIAELAPLRRELIQVNYAKAADIAKLFQSVTSDGGQEGKEGGRGSITVDDRTNSIIAYQPQERLDELRRIVSQLDIPVRQVMIEARIVEANVGYDKSLGVRWGGAYHKGNWSGYGKDGNIGIKDEDGMNCGPIAGSCTFPTTGTSKSPSPFVDLGAKDATSGIGIGFITDNIILDLQLSAMEKTGNGEIVSQPKVVTSDKETAKILKGSEVPYQEASSSGATSTSFKEAALSLEVTPQITPDNRIIVEVKVTKDAPDYQNMLNGVPPINKNEVNAKILVNDGETIVIGGVFSNEQSKSVEKVPFLGELPYLGRLFRRDTVTDRKNELLVFLTPRIMNNQAIAIGR
For B1, the stoichiometry N in assay [3] is 14 and 15.
